Measured values from patent US20240082360A1, “METHODS TO TREAT HEPATITIS DELTA VIRAL INFECTIONS” (Eiger Biopharmaceuticals, Inc., priority 2019, published 2024).

B1: Lambda: pegylated form of interferon lambda, a type III interferon signalling through interferon lambda receptors (protein, UniProt Q8IU54 20-200, looked up)
Interferon lambda-1: GPVPTSKPTTTGKGCHIGRFKSLSPQELASFKKARDALEESLKLKNWSCSSPVFPGNWDLRLLQVRERPVALEAELALTLKVLEAAAGPALEDVLDQPLHTLHHILSQLQACIQPQPTAGPRPRGRLHHWLHRLQEAPKKESAGCLEASVTFNLFRLLTRDLKYVADGNLCLRTSTHPEST
modifications: PEG (peginterferon lambda-1a)
notes: pegylated form of interferon lambda, a type III interferon signalling through interferon lambda receptors

Legend:
HDV [1] = settings: cited from earlier work
HDV [2] = settings: Lambda for 48 weeks; patients with HDV and compensated liver disease; cited from earlier work
HDV [3] = settings: HBV/HDV co-infected mice; four weeks; cited from earlier work
HDV [4] = assay: Phase 2 LIMT study: Lambda for 48 weeks in HDV patients, with two liver-biopsy case reports; format: in vivo, human; design: key to fibrosis score (ISHAK) in liver biopsy following Lambda treatment / fibrosis score (ISHAK) in post-treatment biopsy: F5: incomplete cirrhosis; F1: mild portal fibrosis
Excerpt: See also International Application No. PCT/US2019/048038 for description of this therapy. Impact of Lambda therapy on liver histology was not assessed in the LIMT study. In this example, two case reports of regression of liver fibrosis following treatment in HDV patients from the LIMT study are provided.
Two patients from the LIMT study, who had liver biopsies prior to study randomization, treated with subcutaneous injections of Lambda 180 mcg once weekly for 48 weeks, followed by a 24 week follow-up period, were evaluated with liver biopsy 18 months after last Lambda injection. Liver biopsies, staged according to the ISHAK scoring system, were compared with results of historical biopsies of the patients. HDV RNA viral load and ALT levels were assessed at baseline (BL), end of treatment (EOT) and end of study (EOS). Fibroscan® was performed at BL and EOS.
FibroScan is a specialized ultrasound machine that measures fibrosis (scarring) and steatosis (fatty change) in the liver. The Fibroscan device (Echosens) works by measuring shear wave velocity. In this technique, a 50-MHz wave is passed into the liver from a small transducer on the end of an ultrasound probe. The probe also has a transducer on the end that can measure the velocity of the shear wave (in meters per second) as this wave passes through the liver. The shear wave velocity can then be converted into liver stiffness, which is expressed in kilopascals. Essentially, the technology measures the velocity of the sound wave passing through the liver and then converts that measurement into a liver stiffness measurement; the entire process is often referred to as liver ultrasonographic elastography. See additional discussion in Afdhal, N.H., Gastroenterol Hepatol (N Y). 8(9): 605-607 (2012).

HBV = settings: cited from earlier work

Molecule	patients with undetectable HDV RNA (HDV [1]; 24 weeks post-treatment follow-up) [%]	HDV patients with undetectable HDV RNA (HDV [1]; end of 48 weeks treatment, 180 mcg monotherapy, Robogene 2.0 assay) [%]	durable virologic response (HDV RNA below limit of quantification at 24 weeks post-treatment) (HDV [2]) [%]	reduction in HDV-RNA levels (HDV [3]) [log]	HDV RNA level at EOS (HDV [4]; Patient 1, 24 week follow-up after 48 weeks Lambda, BL 3.7 log10) [log10]	Fibroscan score at EOS (HDV [4]; Patient 1, BL 20 kPa) [kPa]	ALT at EOS (HDV [4]; Patient 1, BL 169 U/L) [U/L]	ALT at EOT (HDV [4]; Patient 1, BL 169 U/L) [U/L]	HDV RNA level at EOT (HDV [4]; Patient 1, Lambda 180 mcg once weekly 48 weeks, BL 3.7 log10)	fibrosis score (ISHAK) in liver biopsy following Lambda treatment (HDV [4]; Patient 1, biopsy 18 months after last Lambda injection, historical biopsy F5)	HDV RNA at EOS (HDV [4]; Patient 2, 24 week follow-up after 48 weeks Lambda, BL 4.9 log10) [log10]	Fibroscan score at EOS (HDV [4]; Patient 2, BL 7.7 kPa) [kPa]	ALT at EOS (HDV [4]; Patient 2, BL 159 U/L) [U/L]	ALT at EOT (HDV [4]; Patient 2, BL 159 U/L) [U/L]	HDV RNA at EOT (HDV [4]; Patient 2, Lambda 180 mcg once weekly 48 weeks, BL 4.9 log10)	fibrosis score (ISHAK) in post-treatment biopsy (HDV [4]; Patient 2, biopsy 18 months after last Lambda injection, historical biopsy F4 (marked bridging fibrosis))	difference between pegylated interferon alfa and pegylated interferon lambda treatment (HBV; end of the treatment period)	declines in viremia as compared to pegylated interferon alfa (HBV; midpoint of treatment (24 weeks))	virologic rebound (HBV; post-treatment, versus pegylated interferon alfa)
interferon alfa	0	13	–	–	–	–	–	–	–	–	–	–	–	–	–	–	–	–	–
B1	–	–	36	1.5	2.6	9.9	54	55	undetectable	F1	3.6	11.1	162	44	undetectable	F1	no difference	more pronounced declines in viremia	greater virologic rebound
